Test results taken from patent US20120276537.

Test system: ZFNRosa (Rosa26-specific zinc finger nuclease pair) (synthetic construct)
Assay: cell_activity
Conditions: mouse zygote mRNA microinjection; 13 of 58 pups lost XbaI site; ZFN pair, half-sites of the monomers not stated; homologous recombination also seen (pup 22 …)

**Q.** “TGCAACTCCAGTCTTTCTAGAAGATGGGCGGGAGTC (double strand) [Rosa26 intron 1 ZFN target site]” was tested. Which activity (% of pups with NHEJ XbaI loss) did it give?
**A.** 22
